Measurements taken from patent US20200317768A1 (published 2020).

T1: cynomolgus monkey FcγRIIa3 extracellular domain with C-terminal His-tag (cynomolgus monkey)
T1 construct: also called cyno FcgRIIa3; cynoFcγRIIa3
T1 chain: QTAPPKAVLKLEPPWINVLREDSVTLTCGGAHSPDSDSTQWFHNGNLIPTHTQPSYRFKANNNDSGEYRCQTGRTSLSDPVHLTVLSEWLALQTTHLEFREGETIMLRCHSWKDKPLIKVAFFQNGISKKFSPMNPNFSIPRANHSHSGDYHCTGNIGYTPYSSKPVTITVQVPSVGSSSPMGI


Tests used:
[1] = biological target: T2, human FcγRIIIaV extracellular domain with C-terminal His-tag (human, UniProt P08637 17-208); assay: SPR (BIACORE), antibody captured, FcgR analyte
T2 construct: also called human FcgRIIIaV
T2 sequence (P08637 17-208 F176V): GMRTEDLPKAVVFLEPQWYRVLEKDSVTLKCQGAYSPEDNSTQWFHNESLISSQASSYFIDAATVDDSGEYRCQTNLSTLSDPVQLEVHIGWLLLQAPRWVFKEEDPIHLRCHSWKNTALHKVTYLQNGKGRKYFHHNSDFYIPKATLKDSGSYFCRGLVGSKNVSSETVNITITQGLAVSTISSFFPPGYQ

[2] = biological target: T1, cynomolgus monkey FcγRIIa3 …; assay: SPR (BIACORE), antibody captured, FcgR analyte

Binder	Kd [1] [µM]	Kd [2] [µM]
M103205H795-MY387/M103202L889-SK1 (antibody, human IgG1, kappa, Substitutions introduced into M103205H795-SG1, expressed with M103202L889-SK1 as light chain; EU numbering) heavy: QVTLKESGPVLVKPTETLTLTCTVSGIDLSHDDISWVRQAPGKGLEWVGIISYAGSTYYASWAKGRLTISKDTSKNQVVLTMTNMDPVDTATYYCARGVPAYSHGGDLWGQGTLVTVSSASTKGPSVFPLAPSSKSTSGGTAALGCLVKDYFPEPVTVSWNSGALTSGVHTFPAVLQSSGLYSLSSVVTVPSSSLGTQTYICNVNHKPSNTKVDKKVEPKSCDKTHTCPPCPAPELLTGPVVFLFPPKPKDTLMISRTPEVTCVVVDVSDEDPEVKFNWYVDGVEVHNAKTKPREEQYNSTYRVVSVLTVLHQDWLNGKEYKCKVSNKALPKPIEKTISKAKGQPREPQVYTLPPSREEMTKNQVSLTCLVKGFYPSDIAVEWESNGQPENNYKTTPPVLDSDGSFFLYSKLTVDKSRWQQGNVFSCSVMHEALHNHYTQKSLSLSP light: DIVMTQSPATLSLSPGERATLSCTSSQSVYHANWLSWFQQKPGQPPKLLIYWASTLAYGVPSRFSGSGSGTDFTLTISSLQPEDAATYYCAGGYGGGRYAFGQGTKVEIKRTVAAPSVFIFPPSDEQLKSGTASVVCLLNNFYPREAKVQWKVDNALQSGNSQESVTEQDSKDSTYSLSSTLTLSKADYEKHKVYACEVTHQGLSSPVTKSFNRGEC	4.7	1.4
M103205H795-MY388/M103202L889-SK1 (antibody, human IgG1, kappa, Substitutions introduced into M103205H795-SG1, expressed with M103202L889-SK1 as light chain; EU numbering) heavy: QVTLKESGPVLVKPTETLTLTCTVSGIDLSHDDISWVRQAPGKGLEWVGIISYAGSTYYASWAKGRLTISKDTSKNQVVLTMTNMDPVDTATYYCARGVPAYSHGGDLWGQGTLVTVSSASTKGPSVFPLAPSSKSTSGGTAALGCLVKDYFPEPVTVSWNSGALTSGVHTFPAVLQSSGLYSLSSVVTVPSSSLGTQTYICNVNHKPSNTKVDKKVEPKSCDKTHTCPPCPAPELLTGPIVFLFPPKPKDTLMISRTPEVTCVVVDVSDEDPEVKFNWYVDGVEVHNAKTKPREEQYNSTYRVVSVLTVLHQDWLNGKEYKCKVSNKALPKPIEKTISKAKGQPREPQVYTLPPSREEMTKNQVSLTCLVKGFYPSDIAVEWESNGQPENNYKTTPPVLDSDGSFFLYSKLTVDKSRWQQGNVFSCSVMHEALHNHYTQKSLSLSP light: DIVMTQSPATLSLSPGERATLSCTSSQSVYHANWLSWFQQKPGQPPKLLIYWASTLAYGVPSRFSGSGSGTDFTLTISSLQPEDAATYYCAGGYGGGRYAFGQGTKVEIKRTVAAPSVFIFPPSDEQLKSGTASVVCLLNNFYPREAKVQWKVDNALQSGNSQESVTEQDSKDSTYSLSSTLTLSKADYEKHKVYACEVTHQGLSSPVTKSFNRGEC	4.3	1.3
M103205H795-MY400/M103202L889-SK1 (antibody, human IgG1, kappa, Substitutions introduced into M103205H795-SG1, expressed with M103202L889-SK1 as light chain; EU numbering) heavy: QVTLKESGPVLVKPTETLTLTCTVSGIDLSHDDISWVRQAPGKGLEWVGIISYAGSTYYASWAKGRLTISKDTSKNQVVLTMTNMDPVDTATYYCARGVPAYSHGGDLWGQGTLVTVSSASTKGPSVFPLAPSSKSTSGGTAALGCLVKDYFPEPVTVSWNSGALTSGVHTFPAVLQSSGLYSLSSVVTVPSSSLGTQTYICNVNHKPSNTKVDKKVEPKSCDKTHTCPPCPAPELLTGPSVFLFPPKPKDTLMISRTPEVTCVVVDVSDEDPEVKFNWYVDGVEVHNAKTKPREEQYNSTYRVVSVLTVLHQDWLNGKEYKCKVSNKALPKEIEKTISKAKGQPREPQVYTLPPSREEMTKNQVSLTCLVKGFYPSDIAVEWESNGQPENNYKTTPPVLDSDGSFFLYSKLTVDKSRWQQGNVFSCSVMHEALHNHYTQKSLSLSP light: DIVMTQSPATLSLSPGERATLSCTSSQSVYHANWLSWFQQKPGQPPKLLIYWASTLAYGVPSRFSGSGSGTDFTLTISSLQPEDAATYYCAGGYGGGRYAFGQGTKVEIKRTVAAPSVFIFPPSDEQLKSGTASVVCLLNNFYPREAKVQWKVDNALQSGNSQESVTEQDSKDSTYSLSSTLTLSKADYEKHKVYACEVTHQGLSSPVTKSFNRGEC	7.8	3.8
M103205H795-MY392/M103202L889-SK1 (antibody, human IgG1, kappa, Substitutions introduced into M103205H795-SG1, expressed with M103202L889-SK1 as light chain; EU numbering) heavy: QVTLKESGPVLVKPTETLTLTCTVSGIDLSHDDISWVRQAPGKGLEWVGIISYAGSTYYASWAKGRLTISKDTSKNQVVLTMTNMDPVDTATYYCARGVPAYSHGGDLWGQGTLVTVSSASTKGPSVFPLAPSSKSTSGGTAALGCLVKDYFPEPVTVSWNSGALTSGVHTFPAVLQSSGLYSLSSVVTVPSSSLGTQTYICNVNHKPSNTKVDKKVEPKSCDKTHTCPPCPAPELLTGPSVFLFPPKPKDTLMISRTPEVTCVVVDVSDEDPEVKFNWYVDGVEVHNAKTKPREEQYNLTYRVVSVLTVLHQDWLNGKEYKCKVSNKALPKPIEKTISKAKGQPREPQVYTLPPSREEMTKNQVSLTCLVKGFYPSDIAVEWESNGQPENNYKTTPPVLDSDGSFFLYSKLTVDKSRWQQGNVFSCSVMHEALHNHYTQKSLSLSP light: DIVMTQSPATLSLSPGERATLSCTSSQSVYHANWLSWFQQKPGQPPKLLIYWASTLAYGVPSRFSGSGSGTDFTLTISSLQPEDAATYYCAGGYGGGRYAFGQGTKVEIKRTVAAPSVFIFPPSDEQLKSGTASVVCLLNNFYPREAKVQWKVDNALQSGNSQESVTEQDSKDSTYSLSSTLTLSKADYEKHKVYACEVTHQGLSSPVTKSFNRGEC	8.3	3.9
M103205H795-MY516/M103202L889-SK1 (antibody, human IgG1, kappa, Substitutions introduced into M103205H795-SG1, expressed with M103202L889-SK1 as light chain; EU numbering) heavy: QVTLKESGPVLVKPTETLTLTCTVSGIDLSHDDISWVRQAPGKGLEWVGIISYAGSTYYASWAKGRLTISKDTSKNQVVLTMTNMDPVDTATYYCARGVPAYSHGGDLWGQGTLVTVSSASTKGPSVFPLAPSSKSTSGGTAALGCLVKDYFPEPVTVSWNSGALTSGVHTFPAVLQSSGLYSLSSVVTVPSSSLGTQTYICNVNHKPSNTKVDKKVEPKSCDKTHTCPPCPAPELLTGPVVFLFPPKPKDTLMISRTPEVTCVVVDVSDEDPEVKFNWYVDGVEVHNAKTKPREELYNLTYRVVSVLTVLHQDWLNGKEYKCKVSNKALPKPIEKTISKAKGQPREPQVYTLPPSREEMTKNQVSLTCLVKGFYPSDIAVEWESNGQPENNYKTTPPVLDSDGSFFLYSKLTVDKSRWQQGNVFSCSVMHEALHNHYTQKSLSLSP light: DIVMTQSPATLSLSPGERATLSCTSSQSVYHANWLSWFQQKPGQPPKLLIYWASTLAYGVPSRFSGSGSGTDFTLTISSLQPEDAATYYCAGGYGGGRYAFGQGTKVEIKRTVAAPSVFIFPPSDEQLKSGTASVVCLLNNFYPREAKVQWKVDNALQSGNSQESVTEQDSKDSTYSLSSTLTLSKADYEKHKVYACEVTHQGLSSPVTKSFNRGEC	6.7	0.79

The remaining lines, values ahead:

Kd [1] [µM]	Kd [2] [µM]	Binder
8.8	1.5	M103205H795-MY514/M103202L889-SK1 (antibody, human IgG1, kappa, Substitutions introduced into M103205H795-SG1, expressed with M103202L889-SK1 as light chain; EU numbering) heavy: QVTLKESGPVLVKPTETLTLTCTVSGIDLSHDDISWVRQAPGKGLEWVGIISYAGSTYYASWAKGRLTISKDTSKNQVVLTMTNMDPVDTATYYCARGVPAYSHGGDLWGQGTLVTVSSASTKGPSVFPLAPSSKSTSGGTAALGCLVKDYFPEPVTVSWNSGALTSGVHTFPAVLQSSGLYSLSSVVTVPSSSLGTQTYICNVNHKPSNTKVDKKVEPKSCDKTHTCPPCPAPELLTGPVVFLFPPKPKDTLMISRTPEVTCVVVDVSDEDPEVKFNWYVDGVEVHNAKTKPREEQYNLTYRVVSVLTVLHQDWLNGKEYKCKVSNKALPKPIEKTISKAKGQPREPQVYTLPPSREEMTKNQVSLTCLVKGFYPSDIAVEWESNGQPENNYKTTPPVLDSDGSFFLYSKLTVDKSRWQQGNVFSCSVMHEALHNHYTQKSLSLSP light: DIVMTQSPATLSLSPGERATLSCTSSQSVYHANWLSWFQQKPGQPPKLLIYWASTLAYGVPSRFSGSGSGTDFTLTISSLQPEDAATYYCAGGYGGGRYAFGQGTKVEIKRTVAAPSVFIFPPSDEQLKSGTASVVCLLNNFYPREAKVQWKVDNALQSGNSQESVTEQDSKDSTYSLSSTLTLSKADYEKHKVYACEVTHQGLSSPVTKSFNRGEC
9	2.9	M103205H795-MY515/M103202L889-SK1 (antibody, human IgG1, kappa, Substitutions introduced into M103205H795-SG1, expressed with M103202L889-SK1 as light chain; EU numbering) heavy: QVTLKESGPVLVKPTETLTLTCTVSGIDLSHDDISWVRQAPGKGLEWVGIISYAGSTYYASWAKGRLTISKDTSKNQVVLTMTNMDPVDTATYYCARGVPAYSHGGDLWGQGTLVTVSSASTKGPSVFPLAPSSKSTSGGTAALGCLVKDYFPEPVTVSWNSGALTSGVHTFPAVLQSSGLYSLSSVVTVPSSSLGTQTYICNVNHKPSNTKVDKKVEPKSCDKTHTCPPCPAPELLTGPSVFLFPPKPKDTLMISRTPEVTCVVVDVSDEDPEVKFNWYVDGVEVHNAKTKPREELYNLTYRVVSVLTVLHQDWLNGKEYKCKVSNKALPKPIEKTISKAKGQPREPQVYTLPPSREEMTKNQVSLTCLVKGFYPSDIAVEWESNGQPENNYKTTPPVLDSDGSFFLYSKLTVDKSRWQQGNVFSCSVMHEALHNHYTQKSLSLSP light: DIVMTQSPATLSLSPGERATLSCTSSQSVYHANWLSWFQQKPGQPPKLLIYWASTLAYGVPSRFSGSGSGTDFTLTISSLQPEDAATYYCAGGYGGGRYAFGQGTKVEIKRTVAAPSVFIFPPSDEQLKSGTASVVCLLNNFYPREAKVQWKVDNALQSGNSQESVTEQDSKDSTYSLSSTLTLSKADYEKHKVYACEVTHQGLSSPVTKSFNRGEC
3.5	1.4	M103205H795-MY389/M103202L889-SK1 (antibody, human IgG1, kappa, Substitutions introduced into M103205H795-SG1, expressed with M103202L889-SK1 as light chain; EU numbering) heavy: QVTLKESGPVLVKPTETLTLTCTVSGIDLSHDDISWVRQAPGKGLEWVGIISYAGSTYYASWAKGRLTISKDTSKNQVVLTMTNMDPVDTATYYCARGVPAYSHGGDLWGQGTLVTVSSASTKGPSVFPLAPSSKSTSGGTAALGCLVKDYFPEPVTVSWNSGALTSGVHTFPAVLQSSGLYSLSSVVTVPSSSLGTQTYICNVNHKPSNTKVDKKVEPKSCDKTHTCPPCPAPELLTGPLVFLFPPKPKDTLMISRTPEVTCVVVDVSDEDPEVKFNWYVDGVEVHNAKTKPREEQYNSTYRVVSVLTVLHQDWLNGKEYKCKVSNKALPKPIEKTISKAKGQPREPQVYTLPPSREEMTKNQVSLTCLVKGFYPSDIAVEWESNGQPENNYKTTPPVLDSDGSFFLYSKLTVDKSRWQQGNVFSCSVMHEALHNHYTQKSLSLSP light: DIVMTQSPATLSLSPGERATLSCTSSQSVYHANWLSWFQQKPGQPPKLLIYWASTLAYGVPSRFSGSGSGTDFTLTISSLQPEDAATYYCAGGYGGGRYAFGQGTKVEIKRTVAAPSVFIFPPSDEQLKSGTASVVCLLNNFYPREAKVQWKVDNALQSGNSQESVTEQDSKDSTYSLSSTLTLSKADYEKHKVYACEVTHQGLSSPVTKSFNRGEC
